Experimental data: PMC10164616

Molecular target: monomeric receptor binding domain from SARS-CoV-2 Spike protein, RBD (319-541)-His6 (SARS-CoV-2) (UniProt P0DTC2)
Assay: SEC

monomeric receptor binding domain from SARS-CoV-2 Spike protein, RBD (319-541)-His6 (from UniProt P0DTC2 319-541) (domain or fragment)
percent dimer (GF-HPLC, first week at 37 °C): 14%
stoichiometry N: 2
